According to PMC5840032 (Bioorganic & medicinal chemistry, 2017):

Target: anthrax lethal factor (LF) protease (UniProt P15917 34-809)
Experiment: enzyme inhibition assay

Chain of anthrax lethal factor (LF) protease (P15917 34-809): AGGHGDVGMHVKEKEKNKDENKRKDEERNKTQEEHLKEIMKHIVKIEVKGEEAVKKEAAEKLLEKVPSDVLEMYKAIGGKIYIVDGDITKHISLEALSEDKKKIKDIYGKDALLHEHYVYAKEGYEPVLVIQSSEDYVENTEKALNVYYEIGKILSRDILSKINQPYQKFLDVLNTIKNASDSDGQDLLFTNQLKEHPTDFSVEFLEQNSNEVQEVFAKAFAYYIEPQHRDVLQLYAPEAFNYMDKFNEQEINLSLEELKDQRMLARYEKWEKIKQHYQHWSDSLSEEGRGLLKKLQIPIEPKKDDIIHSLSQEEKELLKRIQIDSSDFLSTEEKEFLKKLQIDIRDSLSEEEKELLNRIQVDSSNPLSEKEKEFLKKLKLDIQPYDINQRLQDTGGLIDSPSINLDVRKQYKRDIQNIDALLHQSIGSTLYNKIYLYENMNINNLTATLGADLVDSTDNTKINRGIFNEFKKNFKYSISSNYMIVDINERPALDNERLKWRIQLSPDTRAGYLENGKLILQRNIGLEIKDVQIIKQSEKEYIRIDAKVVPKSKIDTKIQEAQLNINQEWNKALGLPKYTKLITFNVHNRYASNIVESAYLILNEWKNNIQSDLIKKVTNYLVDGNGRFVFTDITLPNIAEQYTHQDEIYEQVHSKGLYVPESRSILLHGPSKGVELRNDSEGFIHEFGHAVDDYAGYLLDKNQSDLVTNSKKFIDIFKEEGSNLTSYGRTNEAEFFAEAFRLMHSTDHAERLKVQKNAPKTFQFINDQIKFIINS

Binder	Ki
GFCRCACLHGVCRCICTR (not fully specified; backbone-cyclized; three disulfide bonds) [RTD-1 analog clone #14]	946 ± 47 nM
GFCRCPCSRYGCWCICTR (not fully specified; backbone-cyclized; three disulfide bonds) [RTD-1 analog clone #52]	946 ± 58 nM
